# Molecular target: Hck (UniProt P08631)
# Test: phosphorylation enrichment, bacterial display (enrichment ratio); higher = better substrate or ligand; peptides without Tyr show the background
# 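Note: 11-residue human phosphosite peptides and single-mutation variants displayed on the E. coli surface, counted by deep sequencing, each peptide's frequency after selection divided by its frequency in the unselected input library; frequency after pTyr selection over input frequency; kinase dosed for 20-30% of maximal phosphorylation in three min.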
# Chain of Hck (P08631 whole entry, looked up): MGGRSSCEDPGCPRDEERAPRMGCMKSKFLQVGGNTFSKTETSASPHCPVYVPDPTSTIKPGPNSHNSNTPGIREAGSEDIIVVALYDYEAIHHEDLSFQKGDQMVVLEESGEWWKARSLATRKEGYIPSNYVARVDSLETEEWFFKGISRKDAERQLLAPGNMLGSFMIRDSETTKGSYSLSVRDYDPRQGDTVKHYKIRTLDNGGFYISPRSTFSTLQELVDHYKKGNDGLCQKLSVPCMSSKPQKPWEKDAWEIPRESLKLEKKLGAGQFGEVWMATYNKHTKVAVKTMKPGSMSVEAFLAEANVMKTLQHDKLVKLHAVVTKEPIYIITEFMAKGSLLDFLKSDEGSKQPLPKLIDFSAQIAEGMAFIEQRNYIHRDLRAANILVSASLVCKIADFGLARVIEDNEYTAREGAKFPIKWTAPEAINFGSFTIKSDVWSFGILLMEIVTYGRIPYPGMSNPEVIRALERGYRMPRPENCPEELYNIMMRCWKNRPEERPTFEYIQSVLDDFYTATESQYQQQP
row,Sequence,phosphorylation enrichment
1,LKGQVYILGGE [ASS1_Y359_R363G],0.824
2,IKIMGYFIRTI [IDS_Y490_S491F],0.497
3,EMFNPYFGLFE [NEDD4L_Y679_YF],6.01
4,ATPSRYMTFLH [DYNC2H1_Y2872],0.487
5,YGTAQYCCRMG [LRRK2_Y2023_I2020T],1.2
6,QKTGDYYDLYG [PTPN11_Y62_N58K],4.6
7,KRNSLYSFSDH [CCDC82_Y331_Q327R],0.964
8,PSQRRYVYYYS [PTEN_Y174],0.497
9,RNLLIYTEFGK [HGD_Y166_G161R],5.2
10,SVGGCYEQLFV [MC4R_Y41_D37V],1.46
11,RWHEGYRQTPR [CD44_Y412_K417R],0.345
12,HNLDYYKKTTN [FGFR3_Y648],0.58
13,TTKGAYSLSIR [YES1_Y194],0.445
14,KRRGPYEMSPS [PLPP7_Y172_T174M],0.445
15,KGEDFYCVTCP [FHL1_Y149_H154P],2.96
16,TRSFKCLLLSM [NF1_Y491_Y491C_YF],0.492
17,HYPDVYAWEQL [ALX3_Y181_R183W],4.12

row,Sequence,phosphorylation enrichment
1,EILLSYLRTGY [TGM1_Y365],0.536
2,QRDSSYFWEIE [RAF1_Y340_YF],0.934
3,WSQAMYPDLGP [STARD8_Y330_R327Q],0.486
4,AKKKMYSHKTK [AGXT_Y231_R233H],0.666
5,GRKTLYSFFSP [UNG_Y8_Q4R],2.26
6,GSERRYSREGG [PTPRN2_Y139],0.356
7,KACKHYLTTRT [ZBTB5_Y118],0.501
8,GQLIFYAPPEW [CNTN6_Y315],0.829
9,IDFARYWHGDD [MMP11_Y162],0.463
10,VSFDEYRFRSF [CFTR_Y515_V520F_YF],0.484
11,QLATEYVFSDF [PANX1_Y10],0.703
12,YRRITYHNWRH [PDE6B_Y556],0.477
13,VTRANYFIRDE [GNAS_Y339_K338N],0.388
14,FIGRIYLFLTK [GARS1_Y414_YF],0.564
15,DKTGEYPVPLT [ACADM_Y73_I78T],0.382
16,KNKKDYYDMYE [SLC26A3_Y526],0.73

# Molecular target: MERTK (UniProt Q12866)
# Sequence (Q12866 whole entry, looked up): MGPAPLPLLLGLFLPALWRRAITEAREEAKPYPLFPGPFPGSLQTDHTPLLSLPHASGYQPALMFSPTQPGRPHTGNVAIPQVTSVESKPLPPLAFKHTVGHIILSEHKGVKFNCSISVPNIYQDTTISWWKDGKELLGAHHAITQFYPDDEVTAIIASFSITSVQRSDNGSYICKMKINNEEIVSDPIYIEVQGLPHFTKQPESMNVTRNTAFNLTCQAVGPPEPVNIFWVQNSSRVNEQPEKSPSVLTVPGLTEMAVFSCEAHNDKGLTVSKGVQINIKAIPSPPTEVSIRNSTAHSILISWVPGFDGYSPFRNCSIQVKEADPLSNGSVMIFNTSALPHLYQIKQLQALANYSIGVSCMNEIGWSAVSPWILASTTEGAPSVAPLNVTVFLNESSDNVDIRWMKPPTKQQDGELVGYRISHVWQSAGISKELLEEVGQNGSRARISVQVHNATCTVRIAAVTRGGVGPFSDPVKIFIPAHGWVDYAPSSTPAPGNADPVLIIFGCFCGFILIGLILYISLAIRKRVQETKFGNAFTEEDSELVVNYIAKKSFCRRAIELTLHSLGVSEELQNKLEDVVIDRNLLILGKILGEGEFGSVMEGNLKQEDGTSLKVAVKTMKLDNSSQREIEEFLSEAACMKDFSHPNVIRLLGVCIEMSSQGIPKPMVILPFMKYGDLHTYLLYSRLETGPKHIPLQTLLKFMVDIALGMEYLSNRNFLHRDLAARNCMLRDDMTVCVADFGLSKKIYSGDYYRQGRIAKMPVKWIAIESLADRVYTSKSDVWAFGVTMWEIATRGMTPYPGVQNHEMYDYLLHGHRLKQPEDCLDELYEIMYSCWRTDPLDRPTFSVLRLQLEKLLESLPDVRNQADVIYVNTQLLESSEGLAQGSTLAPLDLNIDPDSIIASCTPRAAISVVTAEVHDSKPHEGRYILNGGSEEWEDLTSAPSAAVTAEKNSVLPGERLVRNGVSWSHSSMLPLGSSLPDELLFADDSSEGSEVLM
# Test: as above
row,Sequence,phosphorylation enrichment
1,LKGQVYILGGE [ASS1_Y359_R363G],1.05
2,IKIMGYFIRTI [IDS_Y490_S491F],0.514
3,EMFNPYFGLFE [NEDD4L_Y679_YF],3.52
4,ATPSRYMTFLH [DYNC2H1_Y2872],0.396
5,YGTAQYCCRMG [LRRK2_Y2023_I2020T],2.78
6,QKTGDYYDLYG [PTPN11_Y62_N58K],3.24
7,KRNSLYSFSDH [CCDC82_Y331_Q327R],4.12
8,PSQRRYVYYYS [PTEN_Y174],2.42
9,RNLLIYTEFGK [HGD_Y166_G161R],5.3
10,SVGGCYEQLFV [MC4R_Y41_D37V],0.826
11,RWHEGYRQTPR [CD44_Y412_K417R],0.539
12,HNLDYYKKTTN [FGFR3_Y648],0.423
13,TTKGAYSLSIR [YES1_Y194],0.548
14,KRRGPYEMSPS [PLPP7_Y172_T174M],0.402
15,KGEDFYCVTCP [FHL1_Y149_H154P],6.08
16,TRSFKCLLLSM [NF1_Y491_Y491C_YF],0.444
17,HYPDVYAWEQL [ALX3_Y181_R183W],3.27

row,Sequence,phosphorylation enrichment
1,EILLSYLRTGY [TGM1_Y365],0.413
2,QRDSSYFWEIE [RAF1_Y340_YF],0.774
3,WSQAMYPDLGP [STARD8_Y330_R327Q],0.393
4,AKKKMYSHKTK [AGXT_Y231_R233H],0.689
5,GRKTLYSFFSP [UNG_Y8_Q4R],12
6,GSERRYSREGG [PTPRN2_Y139],0.415
7,KACKHYLTTRT [ZBTB5_Y118],0.563
8,GQLIFYAPPEW [CNTN6_Y315],3.46
9,IDFARYWHGDD [MMP11_Y162],0.536
10,VSFDEYRFRSF [CFTR_Y515_V520F_YF],0.45
11,QLATEYVFSDF [PANX1_Y10],0.617
12,YRRITYHNWRH [PDE6B_Y556],0.562
13,VTRANYFIRDE [GNAS_Y339_K338N],0.45
14,FIGRIYLFLTK [GARS1_Y414_YF],0.586
15,DKTGEYPVPLT [ACADM_Y73_I78T],0.44
16,KNKKDYYDMYE [SLC26A3_Y526],0.408

# — the supplement of paper PMC10065799, “High-throughput profiling of sequence recognition by tyrosine kinases and SH2 domains using bacterial peptide display” (eLife, 2023)
